The record followed here is patent US20210388049A1 (1GLOBE BIOMEDICAL, published 2021).

Assay [1] addresses PDL1 coated on ELISA plates (UniProt Q9NZQ7 19-238, limits assumed). Description: receptor blocking ELISA, biotinylated Fc-PD1 binding to PDL1-coated plates, streptavidin-HRP. An excerpt: (§1) In both cases, binding was detected by using streptavidin linked horse radish peroxidase.
In general terms: In an ELISA, binding on a coated surface is turned into a signal by an enzyme label.

A further assay concerns the target T1, biotinylated Fc-PDL1 (UniProt Q9NZQ7 19-238, limits assumed, biotinylated (site not stated)).
T1 construct: The order of the parts follows the printed name; not shown: Fc portion
The assay is described as follows: receptor blocking ELISA, biotinylated Fc-PDL1 binding to PD1-coated plates, streptavidin-HRP.
Description: as §1

Assay [2] has as its target T2, human PDL1 transgenically expressed on DLD1 cells (human, UniProt Q9NZQ7 19-290).
T2 construct: whole, on cells; also called cell surface PDL1; PDLL
Description: FACS on DLD1 cells expressing human PDL1, fluorescent anti-human-IgG detection; mean, SD 297. The method, then:
To test the ability of the proteins to bind cell surface PDL1, we used DLD1 cells expressing transgenically expressed human PDLL. […] Briefly, 10⁵ cells were incubated with different concentrations of the protein for 30 minutes at 4° C. Cells were washed with PBS and incubated with a fluorescent, anti-human-IgG antibody for 30 minutes at 4° C. Cells were again washed with PBS and binding was detected by FACS.

T1 sequence (Q9NZQ7 19-238 limits assumed): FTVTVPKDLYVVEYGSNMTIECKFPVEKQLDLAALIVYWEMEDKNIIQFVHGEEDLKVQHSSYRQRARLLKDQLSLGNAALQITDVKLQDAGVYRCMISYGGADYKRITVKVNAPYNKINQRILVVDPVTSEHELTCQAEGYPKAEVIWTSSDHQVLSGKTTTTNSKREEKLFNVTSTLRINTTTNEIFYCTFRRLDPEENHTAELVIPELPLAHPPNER
Chain of PDL1 coated on ELISA plates (Q9NZQ7 19-238 limits assumed): as above
T2 sequence (Q9NZQ7 19-290): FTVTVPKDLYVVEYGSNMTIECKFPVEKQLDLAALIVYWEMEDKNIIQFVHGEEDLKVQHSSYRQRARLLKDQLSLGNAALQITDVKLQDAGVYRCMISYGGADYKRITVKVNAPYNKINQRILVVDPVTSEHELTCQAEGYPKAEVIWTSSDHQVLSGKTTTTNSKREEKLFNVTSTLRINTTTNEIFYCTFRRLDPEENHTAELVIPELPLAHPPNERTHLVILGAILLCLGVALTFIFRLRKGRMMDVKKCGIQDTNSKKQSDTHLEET

B1: E3 anti-PDL1 antibody (antibody, human IgG1, kappa, V domains shown)
VH: QIQLVQSGAEVKKPGSSVKVSCKASGGTFSSYAISWVRQAPGQGLEWMGGIIPIFGTANYAQKFQGRVTITADKSTSTAYMELSSLRSEDTAVYYCAGGGAVADNSYWGQGTLVTVSS
VL: DIRMTQSPSSLSASVGDRVTITCRASQGIRNDLGWYQQKPGKAPKLLIYAASSLQSGVPSRFSGSGSGTDFTLTISSLQPEDFATYYCLQDYNYPRTFGQGTKVEIKR
By IC50 is commonly meant the point on the concentration scale where inhibition reaches its midpoint. As for B1, the results for the IC50 (in assay [1]; in the assay with biotinylated Fc-PDL1) were 16.6 nM and 92.7 nM, respectively.

B2: B2 anti-PDL1 antibody (antibody, human IgG1, lambda, V domains shown)
VH: EVQLVESGGGLVQPGGSLRLSCAASGFTFSDYDMIWVRQAPGKGLEWVAVISYDGSNKYYADSVKGRFTISRDNSKNTLYLQMNSLRAEDTAVYYCAKEFFGAFDIWGQGTMVTVSS
VL: SSELTQDPAVSVALGQTVTITCQGDSLNYYYANWFQLKPGQAPVLVLFGKNNRPSGIPDRFSGSYSGSTASLTITGAQAEDDADYYCNSRDSGGNPWVFGGGTKLTVLG
In the case of B2, the IC50 in assay [1] turned out to be 0.8 nM; with biotinylated Fc-PDL1 it was 1.39 nM.

B3: E1 anti-PDL1 antibody (antibody, human IgG1, kappa, V domains shown)
VH: QIQLVQSGAEVKMPGASVTISCEASGYNFISYYIHWVRQAPGQGLEWMGFVVPSGGAAGYTQKFQGRLTVTRDTSTSTVYMDLNSLTSDDTAVYYCVREMSGGWFDFWGQGTLVTVSS
VL: DIVMTQSPSSLSASVGDRVTITCRASQGIRNDLGWYQQKPGKAPKLLIYAASTLQSGVPSRFSGSGSGTDFTLTISSLQAEDVAVYYCQQYYSTPLTFGPGTKVDIKR
notes: The full-length entries begin with the secretory leader; The constant region is human IgG1 type; also called parental antibody
The EC50 is the concentration that produces a half-maximal response. Read a high EC50 as a need for much substance. In the case of B3, in assay [2], a half-maximal response (EC50) required 1.96 nM. The figures for the IC50 (in assay [1]; with biotinylated Fc-PDL1) were 1.53 nM and 1.26 nM, respectively.
